From patent US20220332804A1 (CSL INNOVATION, published 2022)

What was measured:
Assay in all cases: SPR, KD relative to WT C2;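 further: biacore SPR at 37 °C, anti-C2 mAbs captured on anti-human IgG chips with alanine or serine point mutants of C2 as analyte, KD from 1:1 fit compared with wild-type C2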
[1] = molecular target: T1, human C2 I320A (human, UniProt P06681 21-752)
T1 sequence: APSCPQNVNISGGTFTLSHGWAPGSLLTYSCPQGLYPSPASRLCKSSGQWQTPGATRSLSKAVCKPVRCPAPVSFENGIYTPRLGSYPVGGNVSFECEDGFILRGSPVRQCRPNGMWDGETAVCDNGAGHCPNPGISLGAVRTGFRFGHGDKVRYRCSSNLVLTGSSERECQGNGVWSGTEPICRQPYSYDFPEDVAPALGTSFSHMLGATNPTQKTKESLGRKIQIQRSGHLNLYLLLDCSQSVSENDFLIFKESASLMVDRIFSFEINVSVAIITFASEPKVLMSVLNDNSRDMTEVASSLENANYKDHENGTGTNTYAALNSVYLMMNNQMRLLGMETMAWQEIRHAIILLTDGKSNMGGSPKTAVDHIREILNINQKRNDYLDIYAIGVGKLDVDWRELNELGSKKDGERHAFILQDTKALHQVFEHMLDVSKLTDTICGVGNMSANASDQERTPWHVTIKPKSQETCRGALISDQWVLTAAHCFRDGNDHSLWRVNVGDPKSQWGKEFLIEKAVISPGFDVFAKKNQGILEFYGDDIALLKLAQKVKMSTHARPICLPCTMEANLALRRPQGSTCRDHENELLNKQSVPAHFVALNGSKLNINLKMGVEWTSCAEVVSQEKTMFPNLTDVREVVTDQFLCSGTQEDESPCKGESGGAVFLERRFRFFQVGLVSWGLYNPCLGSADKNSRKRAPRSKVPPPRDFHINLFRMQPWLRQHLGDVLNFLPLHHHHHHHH

[2] = molecular target: T2, human C2 D431A (human, UniProt P06681 21-752)
T2 sequence: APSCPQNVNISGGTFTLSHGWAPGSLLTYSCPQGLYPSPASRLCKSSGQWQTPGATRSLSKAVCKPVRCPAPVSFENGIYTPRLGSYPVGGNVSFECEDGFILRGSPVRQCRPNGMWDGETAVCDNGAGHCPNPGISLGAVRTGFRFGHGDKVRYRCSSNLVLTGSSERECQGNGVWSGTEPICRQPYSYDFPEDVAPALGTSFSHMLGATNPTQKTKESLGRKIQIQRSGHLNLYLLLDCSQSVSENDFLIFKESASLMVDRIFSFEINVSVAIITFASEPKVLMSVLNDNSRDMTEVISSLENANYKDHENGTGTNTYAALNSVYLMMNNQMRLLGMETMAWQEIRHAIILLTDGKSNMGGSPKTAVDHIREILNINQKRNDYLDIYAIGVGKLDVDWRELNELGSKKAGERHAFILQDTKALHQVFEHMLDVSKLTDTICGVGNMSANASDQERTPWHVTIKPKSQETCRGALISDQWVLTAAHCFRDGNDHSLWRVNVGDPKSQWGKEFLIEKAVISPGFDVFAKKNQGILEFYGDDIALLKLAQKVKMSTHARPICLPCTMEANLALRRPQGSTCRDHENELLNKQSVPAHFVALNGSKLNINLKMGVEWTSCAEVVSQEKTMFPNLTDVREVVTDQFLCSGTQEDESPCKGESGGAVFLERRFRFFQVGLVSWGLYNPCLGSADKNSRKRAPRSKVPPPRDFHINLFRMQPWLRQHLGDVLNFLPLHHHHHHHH

[3] = molecular target: T3, human C2 V418A (human, UniProt P06681 21-752)
T3 sequence: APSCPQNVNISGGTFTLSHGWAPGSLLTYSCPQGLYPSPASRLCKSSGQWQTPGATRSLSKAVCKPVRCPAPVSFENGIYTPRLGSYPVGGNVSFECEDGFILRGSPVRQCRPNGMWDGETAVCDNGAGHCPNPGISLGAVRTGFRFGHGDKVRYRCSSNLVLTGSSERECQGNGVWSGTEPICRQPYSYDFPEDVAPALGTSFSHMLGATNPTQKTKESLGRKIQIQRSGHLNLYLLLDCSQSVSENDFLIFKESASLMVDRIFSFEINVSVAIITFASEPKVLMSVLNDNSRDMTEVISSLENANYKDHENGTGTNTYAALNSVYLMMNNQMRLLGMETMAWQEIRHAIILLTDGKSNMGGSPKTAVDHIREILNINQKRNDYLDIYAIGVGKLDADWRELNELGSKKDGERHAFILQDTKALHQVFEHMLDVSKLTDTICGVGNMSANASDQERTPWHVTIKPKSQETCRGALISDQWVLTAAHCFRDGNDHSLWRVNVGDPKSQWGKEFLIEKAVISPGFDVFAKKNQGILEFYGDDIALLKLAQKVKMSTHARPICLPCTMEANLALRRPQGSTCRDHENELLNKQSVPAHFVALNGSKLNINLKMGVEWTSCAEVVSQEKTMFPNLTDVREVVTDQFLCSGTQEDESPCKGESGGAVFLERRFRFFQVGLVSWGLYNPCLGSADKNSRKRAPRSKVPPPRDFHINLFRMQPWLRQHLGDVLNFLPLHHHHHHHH

[4] = molecular target: T4, human C2 A470S (human, UniProt P06681 21-752)
T4 sequence: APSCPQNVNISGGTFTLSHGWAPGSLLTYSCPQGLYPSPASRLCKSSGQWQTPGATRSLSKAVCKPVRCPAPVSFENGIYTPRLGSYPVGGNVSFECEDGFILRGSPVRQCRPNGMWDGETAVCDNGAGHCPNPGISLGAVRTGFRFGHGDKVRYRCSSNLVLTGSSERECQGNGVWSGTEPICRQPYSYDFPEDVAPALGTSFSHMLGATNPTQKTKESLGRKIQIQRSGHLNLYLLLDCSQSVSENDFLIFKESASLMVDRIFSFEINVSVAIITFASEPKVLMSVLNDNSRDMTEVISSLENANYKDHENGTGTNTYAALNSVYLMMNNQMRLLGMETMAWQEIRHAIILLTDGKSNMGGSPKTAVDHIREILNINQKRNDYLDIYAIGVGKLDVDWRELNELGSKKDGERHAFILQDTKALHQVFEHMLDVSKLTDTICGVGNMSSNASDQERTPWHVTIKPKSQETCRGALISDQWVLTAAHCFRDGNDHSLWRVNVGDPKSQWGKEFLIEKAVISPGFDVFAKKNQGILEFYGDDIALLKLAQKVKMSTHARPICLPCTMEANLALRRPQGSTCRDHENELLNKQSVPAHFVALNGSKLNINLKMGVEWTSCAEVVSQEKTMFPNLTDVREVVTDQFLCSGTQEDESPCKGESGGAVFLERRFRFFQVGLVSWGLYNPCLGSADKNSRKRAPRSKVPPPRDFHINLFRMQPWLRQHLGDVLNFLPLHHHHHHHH

B1: RF16-242 (antibody, human IgG4 S228P, lambda, V domains shown)
VH: EVQLLQSGAEVKKPGESLKISCKGSGYSFTSYWIGWVRQMPGKGLEWMGIIYPGDSDTRYSPSFQGQVTISADKSISTAYLQWSSLKASDTAMYYCARRGHYGDYFDYWGQGTLVTVSS
VL: SYELTQPPSVSVSPGQTARITCSGDALPKKYAYWYHQKSGQAPVLVIYEDRRRPSEIPERFSGSSSGTMATLTITGAQVEDEGVYFCYSRDRAGNQRVFGGGTQLTVLG
notes: pH-dependent anti-C2 antibody from a phage display library
- Fold diff [1]: 10 fold
- Fold diff [2]: 3 fold
- Fold diff [3]: 1 fold
- Fold diff [4]: 1 fold
